Assay results published in patent US20180250376A1 (US Dept. of Health and Human Services, published 2018).
“And” between values parts separate entries of the source, which are not always exact repeats. Equal values may be shown once.

B1: TEM8 on CHO TEM8-T4 cells (receptor)
chain: not shown
B2: CMG2 on CHO CMG2-C4 cells (receptor)
chain: not shown

Molecular target: PA-U7 (Bacillus anthracis, UniProt P13423 30-764)

| Binder | Kd |
| --- | --- |
| B1 | 25 nM and 35 nM |
| B2 | 8 nM and 12 nM |
